# B1: Fc RNA aptamer Apt8-2-oxanine (mixed)
# DNA: GGAGGTGCTCCGAAAGGAACTCC
# modifications: printed ggAGG[2'-F-rU]Gc[2'-F-rU]ccgaaaGgaa[2'-F-rC][2'-F-rU]cc (lowercase DNA, uppercase RNA); about 10 oxanine nucleotides added at 3' end
# Molecular target: trastuzumab (humanized IgG1 monoclonal antibody) (UniProt P01857-1;P01834 P01857-1:1-330,P01834:1-107)
# Assay: covalent conjugation at heavy chain only, at least one per antibody; HEPES pH 8.4, Mg, K, 37 C, 1 day
# Conditions: chain copies: 2
# Source text: Whether the aptamer brings oxanine close to the amine group of the target protein, enabling proximity-enhanced covalent bond formation, was monitored with SDS-PAGE (protein bands) and electrophoresis (DNA bands).
# Chain of trastuzumab (humanized IgG1 monoclonal antibody) (P01857 other isoform, or with tags, fused parts or gaps, chain 1 of 2, other chains not shown): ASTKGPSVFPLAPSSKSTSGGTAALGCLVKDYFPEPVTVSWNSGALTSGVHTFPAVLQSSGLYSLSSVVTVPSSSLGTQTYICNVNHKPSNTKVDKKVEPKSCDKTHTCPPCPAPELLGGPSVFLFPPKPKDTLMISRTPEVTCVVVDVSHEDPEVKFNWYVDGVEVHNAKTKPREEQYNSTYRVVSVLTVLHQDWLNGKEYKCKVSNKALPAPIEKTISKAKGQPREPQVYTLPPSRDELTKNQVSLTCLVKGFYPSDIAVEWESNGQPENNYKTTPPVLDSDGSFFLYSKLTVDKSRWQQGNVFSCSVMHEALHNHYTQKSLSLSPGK
binder,measurement,value
B1,binding result,binds

# Source: patent US20240424107, “PREPARATION OF SITE-SPECIFIC POLYPEPTIDE CONJUGATES” (POSTECH RESEARCH AND BUSINESS DEVELOPMENT FOUNDATION, published 2024)
